Reference: patent US20100196347A1, “BONE GRAFTS WITH REDUCED PROTEASE ACTIVITY AND METHODS OF SELECTION AND USE” (priority 2008, published 2010)

Columns and labels:
[1] = Non-reducing SDS-PAGE of rhPDGF-BB eluted from human FDBA; type: physicochemical; conditions: data not shown
Description: (§1) In particular, PDGF (0.5 ml of 0.3 mg/ml) was incubated with the freeze-dried bone graft (˜0.5 ml) and mixed for 10 minutes, 60 minutes, or overnight at room temperature. Then 1 mL of 1 M NaCl was added as described above for FIG. 1. The final NaCl concentration was 667 mM. PDGF was separated from the bone graft by centrifugation at 15,334×g for 2 minutes and the supernatant containing PDGF was analyzed by SEC, RPHPLC, ELISA, and non-reducing SDS-PAGE. […] Released PDGF was measured using a standard ELISA assay. The ELISA assay was performed using Quantikine® Human PDGF-BB Immunoassay from R&D Systems, Inc. according to the manufacturer's protocol (see, for example, world wide web at rndsystems.com/pdf/dbb00.pdf). Briefly, a receptor for human PDGF-BB was coated onto a plate, then PDGF was bound and evaluated with a secondary antibody-HRP conjugate and the chromogen tetramethylbenzidine for detection. […] Alternatively, the concentrations of the rhPDGF-BB in supernatants were determined using the size exclusion HPLC (SEC) on TOSOH Biosep TSK-Gel, 7.8 mm×3 cm HPLC column and TOSOH Biosep TSK-Gel, 6.0 mm×4.0 cm precolumn (Tosoh Bioscience, San Francisco, Calif.) by integration of the elution profile of PDGF and using calibration at 5 different concentrations of standard PDGF as shown in FIG. 4C.

[2] = Binding and release of PDGF from human bone graft (salt elution; ELISA / SEC); type: physicochemical
Description: FIG. 1 summarizes an exemplary protocol for studying the binding and release of PDGF from bone graft. For some experiments, the amounts were scaled down two or ten times to preserve the bone graft materials. In particular, 100 μl of human bone graft (LifeNet, Inc.) was mixed with 100 μl of PDGF at a concentration of 0.3 mg/mL in 20 mM NaOAc, pH 6.0 for ten minutes. The bone graft consisted of dry particles. The bone graft was freeze-dried before being sold (referred to as freeze-dried bone allograft, or FDBA). Then, 200 μl of NaCl (at various concentrations) in 20 mM NaOAc, pH 6.0 or phosphate buffered saline (PBS) (without NaOAc) was added. The solution was then incubated for either 1 hour or 24 hours. PDGF in solution was separated from insoluble human bone graft by centrifugation at ˜2000×g for 5 minutes at 4° C., and then the amount of rhPDGF-BB released from the matrix was determined by colorimetric ELISA Quantikine assy (R & D Systems, Minneapolis, Minn.) using plates coated with the receptor to human PDGF-BB.
as §1, with “The final NaCl concentration was 667 mM.” left out, “The ELISA assay was performed using Quantikine® Human PDGF-BB Immunoassay from R&D Systems, Inc. according to the manufacturer's protocol (see, for example, world wide web at rndsystems.com/pdf/dbb00.pdf).” left out, “4C. […]” for “4C.”

[3] = PDGF release from washed demineralized bone graft (ELISA); type: physicochemical
Description: The washes were conducted as follows. The bone graft sample (−0.1 g) was placed in a small plastic tube and then either 1.0 ml of water, saline solution, or elution buffer was added to the sample. The mixture was allowed to sit at room temperature for 5 minutes with occasional gently mixing by hand. At the end of the 5 minutes, the fluid was pulled off the bone graft material using a pipet, and the remaining fluid was removed by compressing the material with a sterile cotton Q-tip applicator. Following this, a solution of 0.3 mg/ml rhPDGF-BB was added to the washed bone graft and samples were removed for quantification of PDGF by ELISA over 60 minutes.

MG-63 cells = assay: MG-63 cell-based bioassay of rhPDGF eluted from FDBA; conditions: eluted from FDBA with NaCl after ten minutes; data not shown

Substance: rhPDGF-BB: recombinant human platelet-derived growth factor BB
- electrophoretic comparison with control rhPDGF-BB [1]: electrophoretically indistinguishable
- PDGF release from freeze-dried bone graft with other compounds ([2]; MEM and acetic acid in place of NaCl): release of some PDGF
- PDGF released from bone graft by salt incubation ([2]; NaCl up to 1.5 M or PBS, 1 hour or 24 hours, ELISA): significant amount of PDGF was released
- rhPDGF-BB bound to the bone graft matrix recovered from the bone graft ([2]; mixture of rhPDGF-BB and bone graft washed with a low ionic strength buffer): less than 10%
- amount of PDGF released from DM bone graft ([3]; bone graft washed 5 minutes in saline): More PDGF was released
- amount of PDGF released from DM bone graft at the end of the 60 minute study ([3]; bone graft washed 5 minutes in sterile water): decrease
- amount of PDGF released from DM bone graft ([3]; bone graft washed in elution buffer): somewhere in the middle between water and saline washes
- biopotency compared to a control sample of rhPDGF-BB (MG-63 cells): retained its biopotency
